Key:
[1] = target: H2A.Z-containing nucleosome (H. sapiens histone octamer, H2B labeled with ATTO643) assembled on lambda-DNA (H. sapiens) (UniProt P0C0S5); experiment: single-molecule DNA curtains (TIRF; two-colour co-localization); ATTO643-labeled H2A.Z nucleosomes on sparsely chromatinized double-tethered lambda-DNA, washed with 350 mM NaCl; LD555-INO80 flushed in, flow stopped; DNA curtains buffer with 1 mM ATP
[2] = target: S. cerevisiae wild-type INO80 complex, labeled with LD555 (S. cerevisiae) (UniProt P53115); experiment: single-molecule DNA curtains (TIRF; fluorescence intensity and photobleaching steps); LD555-labeled INO80 on double-tethered lambda-DNA; 20 mM HEPES pH 8.0, 1 mg/mL BSA, 4 mM Mg(OAc)2, 1 mM ATP, 1 mM DTT, 120 mM KGlu; 125 to 250 pM INO80 injected

co-localization time, second population (short associations) [1] [s] | co-localization time, third population (extremely long-lived co-localizations) [1] [s] | median interaction (co-localization) time [1] [s] | percent of DNA-bound complexes that are dimers [2] [%] | stoichiometry N [2] | Substance
16.6 | 1200 | 15.3 |  |  | S. cerevisiae wild-type INO80 complex, labeled with LD555 (from UniProt P53115 1-1489; Q03940 1-463; Q12464 1-471; P53946 1-755; P32617 1-166; P60010 1-375; P80428 1-489; Q12386 1-881; P35189 1-244; P40154 1-320; Q08561 1-116; P43579 1-692; Q12345 1-250; P40060 1-125; Q03435 1-203)
 |  |  | 11 | 2 | S. cerevisiae wild-type INO80 complex, labeled with LD555 (from UniProt P53115 1-1489; Q03940 1-463; Q12464 1-471; P53946 1-755; P32617 1-166; P60010 1-375; P80428 1-489; Q12386 1-881; P35189 1-244; P40154 1-320; Q08561 1-116; P43579 1-692; Q12345 1-250; P40060 1-125; Q03435 1-203) (complex; LD555 on the ybbR-tag (Sfp with LD555-CoA); LD555 on the ybbR-tag (Sfp with LD555-CoA))

From paper PMC13623949
